Measured values published in the Human Domainome abundance scans (Beltran et al. 2025).
± gives the uncertainty stated by the source.

Experiment: abundance fitness (aPCA) (normalised: wild type 0, dead -1); higher = more abundant; growth selection in yeast, the domain comes from the species named
Conditions: Homo sapiens

**Q.** With “Lipoamide acyltransferase component of branched-chain alpha-keto acid dehydrogenase complex, mitochondrial G195E, P11182” as the substance, how does the abundance fitness read?
**A.** Its abundance fitness is -0.639 ± 0.073.

**Q.** For “Lipoamide acyltransferase component of branched-chain alpha-keto acid dehydrogenase complex, mitochondrial G195H, P11182”, which abundance fitness is on record?
**A.** Its abundance fitness is -0.7 ± 0.1.

**Q.** Which abundance fitness does the source give for “Lipoamide acyltransferase component of branched-chain alpha-keto acid dehydrogenase complex, mitochondrial G195I, P11182” here?
**A.** The abundance fitness was -0.867 ± 0.15.

**Q.** For “Lipoamide acyltransferase component of branched-chain alpha-keto acid dehydrogenase complex, mitochondrial G195K, P11182”, which abundance fitness is on record?
**A.** The abundance fitness was -0.566 ± 0.13.

**Q.** For “Lipoamide acyltransferase component of branched-chain alpha-keto acid dehydrogenase complex, mitochondrial G195L, P11182”, which abundance fitness is on record?
**A.** The abundance fitness was -0.927 ± 0.055.

**Q.** Which abundance fitness does the source give for “Lipoamide acyltransferase component of branched-chain alpha-keto acid dehydrogenase complex, mitochondrial G195M, P11182” here?
**A.** Its abundance fitness is -0.793 ± 0.16.

**Q.** With “Lipoamide acyltransferase component of branched-chain alpha-keto acid dehydrogenase complex, mitochondrial G195N, P11182” as the substance, how does the abundance fitness read?
**A.** Its abundance fitness is -0.611 ± 0.12.

**Q.** Which abundance fitness does the source give for “Lipoamide acyltransferase component of branched-chain alpha-keto acid dehydrogenase complex, mitochondrial G195P, P11182” here?
**A.** Its abundance fitness is -0.682 ± 0.07.

**Q.** Which abundance fitness does the source give for “Lipoamide acyltransferase component of branched-chain alpha-keto acid dehydrogenase complex, mitochondrial G195Q, P11182” here?
**A.** Its abundance fitness is -0.483 ± 0.067.

**Q.** Which abundance fitness does the source give for “Lipoamide acyltransferase component of branched-chain alpha-keto acid dehydrogenase complex, mitochondrial G195R, P11182” here?
**A.** The abundance fitness was -0.591 ± 0.042.

**Q.** For “Lipoamide acyltransferase component of branched-chain alpha-keto acid dehydrogenase complex, mitochondrial G195S, P11182”, which abundance fitness is on record?
**A.** Its abundance fitness is -0.444 ± 0.08.

**Q.** With “Lipoamide acyltransferase component of branched-chain alpha-keto acid dehydrogenase complex, mitochondrial G195T, P11182” as the substance, how does the abundance fitness read?
**A.** The abundance fitness was -0.587 ± 0.066.

**Q.** With “Lipoamide acyltransferase component of branched-chain alpha-keto acid dehydrogenase complex, mitochondrial G195V, P11182” as the substance, how does the abundance fitness read?
**A.** The abundance fitness was -0.702 ± 0.059.

**Q.** For “Lipoamide acyltransferase component of branched-chain alpha-keto acid dehydrogenase complex, mitochondrial G195W, P11182”, which abundance fitness is on record?
**A.** The abundance fitness was -1.25 ± 0.11.

**Q.** Which abundance fitness does the source give for “Lipoamide acyltransferase component of branched-chain alpha-keto acid dehydrogenase complex, mitochondrial G195Y, P11182” here?
**A.** The abundance fitness was -0.977 ± 0.35.

**Q.** Which abundance fitness does the source give for “Lipoamide acyltransferase component of branched-chain alpha-keto acid dehydrogenase complex, mitochondrial G198A, P11182” here?
**A.** The abundance fitness was -0.517 ± 0.044.

**Q.** With “Lipoamide acyltransferase component of branched-chain alpha-keto acid dehydrogenase complex, mitochondrial G198C, P11182” as the substance, how does the abundance fitness read?
**A.** The abundance fitness was -0.666 ± 0.14.

**Q.** Which abundance fitness does the source give for “Lipoamide acyltransferase component of branched-chain alpha-keto acid dehydrogenase complex, mitochondrial G198D, P11182” here?
**A.** The abundance fitness was -0.341 ± 0.11.

**Q.** For “Lipoamide acyltransferase component of branched-chain alpha-keto acid dehydrogenase complex, mitochondrial G198E, P11182”, which abundance fitness is on record?
**A.** Its abundance fitness is -0.506 ± 0.052.

**Q.** Which abundance fitness does the source give for “Lipoamide acyltransferase component of branched-chain alpha-keto acid dehydrogenase complex, mitochondrial G198F, P11182” here?
**A.** Its abundance fitness is -0.771 ± 0.25.

**Q.** Which abundance fitness does the source give for “Lipoamide acyltransferase component of branched-chain alpha-keto acid dehydrogenase complex, mitochondrial G198H, P11182” here?
**A.** The abundance fitness was -0.267 ± 0.062.

**Q.** For “Lipoamide acyltransferase component of branched-chain alpha-keto acid dehydrogenase complex, mitochondrial G198I, P11182”, which abundance fitness is on record?
**A.** Its abundance fitness is -1.24 ± 0.23.

**Q.** For “Lipoamide acyltransferase component of branched-chain alpha-keto acid dehydrogenase complex, mitochondrial G198K, P11182”, which abundance fitness is on record?
**A.** Its abundance fitness is -0.406 ± 0.18.

**Q.** Which abundance fitness does the source give for “Lipoamide acyltransferase component of branched-chain alpha-keto acid dehydrogenase complex, mitochondrial G198M, P11182” here?
**A.** Its abundance fitness is -0.57 ± 0.1.

**Q.** For “Lipoamide acyltransferase component of branched-chain alpha-keto acid dehydrogenase complex, mitochondrial G198P, P11182”, which abundance fitness is on record?
**A.** Its abundance fitness is -0.776 ± 0.097.

**Q.** With “Lipoamide acyltransferase component of branched-chain alpha-keto acid dehydrogenase complex, mitochondrial G198Q, P11182” as the substance, how does the abundance fitness read?
**A.** Its abundance fitness is -0.301 ± 0.051.

**Q.** For “Lipoamide acyltransferase component of branched-chain alpha-keto acid dehydrogenase complex, mitochondrial G198R, P11182”, which abundance fitness is on record?
**A.** The abundance fitness was -0.514 ± 0.044.

**Q.** With “Lipoamide acyltransferase component of branched-chain alpha-keto acid dehydrogenase complex, mitochondrial G198S, P11182” as the substance, how does the abundance fitness read?
**A.** The abundance fitness was -0.412 ± 0.04.

**Q.** Which abundance fitness does the source give for “Lipoamide acyltransferase component of branched-chain alpha-keto acid dehydrogenase complex, mitochondrial G198T, P11182” here?
**A.** The abundance fitness was -0.647 ± 0.078.

**Q.** For “Lipoamide acyltransferase component of branched-chain alpha-keto acid dehydrogenase complex, mitochondrial G198V, P11182”, which abundance fitness is on record?
**A.** Its abundance fitness is -1.04 ± 0.085.

**Q.** With “Lipoamide acyltransferase component of branched-chain alpha-keto acid dehydrogenase complex, mitochondrial G198W, P11182” as the substance, how does the abundance fitness read?
**A.** Its abundance fitness is -0.982 ± 0.16.

**Q.** For “Lipoamide acyltransferase component of branched-chain alpha-keto acid dehydrogenase complex, mitochondrial G214A, P11182”, which abundance fitness is on record?
**A.** The abundance fitness was 0.014 ± 0.054.

**Q.** For “Lipoamide acyltransferase component of branched-chain alpha-keto acid dehydrogenase complex, mitochondrial G214C, P11182”, which abundance fitness is on record?
**A.** Its abundance fitness is -0.066 ± 0.057.

**Q.** For “Lipoamide acyltransferase component of branched-chain alpha-keto acid dehydrogenase complex, mitochondrial G214D, P11182”, which abundance fitness is on record?
**A.** The abundance fitness was -0.041 ± 0.071.

**Q.** For “Lipoamide acyltransferase component of branched-chain alpha-keto acid dehydrogenase complex, mitochondrial G214E, P11182”, which abundance fitness is on record?
**A.** Its abundance fitness is 0.135 ± 0.12.

**Q.** With “Lipoamide acyltransferase component of branched-chain alpha-keto acid dehydrogenase complex, mitochondrial G214H, P11182” as the substance, how does the abundance fitness read?
**A.** Its abundance fitness is 0.016 ± 0.17.

**Q.** Which abundance fitness does the source give for “Lipoamide acyltransferase component of branched-chain alpha-keto acid dehydrogenase complex, mitochondrial G214K, P11182” here?
**A.** The abundance fitness was 0.129 ± 0.076.

**Q.** With “Lipoamide acyltransferase component of branched-chain alpha-keto acid dehydrogenase complex, mitochondrial G214M, P11182” as the substance, how does the abundance fitness read?
**A.** Its abundance fitness is -0.154 ± 0.23.

**Q.** With “Lipoamide acyltransferase component of branched-chain alpha-keto acid dehydrogenase complex, mitochondrial G214N, P11182” as the substance, how does the abundance fitness read?
**A.** Its abundance fitness is -0.41 ± 0.18.

**Q.** With “Lipoamide acyltransferase component of branched-chain alpha-keto acid dehydrogenase complex, mitochondrial G214P, P11182” as the substance, how does the abundance fitness read?
**A.** The abundance fitness was -0.474 ± 0.2.

**Q.** For “Lipoamide acyltransferase component of branched-chain alpha-keto acid dehydrogenase complex, mitochondrial G214Q, P11182”, which abundance fitness is on record?
**A.** Its abundance fitness is 0.133 ± 0.074.

**Q.** Which abundance fitness does the source give for “Lipoamide acyltransferase component of branched-chain alpha-keto acid dehydrogenase complex, mitochondrial G214R, P11182” here?
**A.** Its abundance fitness is -0.002 ± 0.039.

**Q.** For “Lipoamide acyltransferase component of branched-chain alpha-keto acid dehydrogenase complex, mitochondrial G214S, P11182”, which abundance fitness is on record?
**A.** The abundance fitness was -0.028 ± 0.078.

**Q.** Which abundance fitness does the source give for “Lipoamide acyltransferase component of branched-chain alpha-keto acid dehydrogenase complex, mitochondrial G214T, P11182” here?
**A.** Its abundance fitness is -0.034 ± 0.13.

**Q.** Which abundance fitness does the source give for “Lipoamide acyltransferase component of branched-chain alpha-keto acid dehydrogenase complex, mitochondrial G214V, P11182” here?
**A.** Its abundance fitness is -0.08 ± 0.065.

**Q.** With “Lipoamide acyltransferase component of branched-chain alpha-keto acid dehydrogenase complex, mitochondrial G214W, P11182” as the substance, how does the abundance fitness read?
**A.** The abundance fitness was -0.315 ± 0.054.

**Q.** With “Lipoamide acyltransferase component of branched-chain alpha-keto acid dehydrogenase complex, mitochondrial G214Y, P11182” as the substance, how does the abundance fitness read?
**A.** The abundance fitness was -0.189 ± 0.12.

**Q.** With “Lipoamide acyltransferase component of branched-chain alpha-keto acid dehydrogenase complex, mitochondrial I186A, P11182” as the substance, how does the abundance fitness read?
**A.** The abundance fitness was -0.555 ± 0.044.
